In the nanobody polyreactivity screen of Harvey et al. (2022):

Assay: yeast display, Sf9 membrane polyspecificity reagent, FACS + sequencing; frameworks hold sequencing errors
In short: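 Galactose-induced (36–48 hours) yeast carrying a synthetic nanobody display library were exposed to 10% biotinylated, detergent-solubilized Sf9 membrane reagent at 4 °C for 1 hour. FACS followed streptavidin microbead enrichment, using low and high (top ~1%) gates for expression (anti-HA) and reagent binding (streptavidin). Colony PCR, MiSeq 2 × 250 sequencing and CDR-length filtering followed. Labels for polyreactivity reflect the gate of origin.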

| Sequence | polyreactivity (PSR sort gate) |
| --- | --- |
| QVQLVESGGGLVQAGGSLRLSCAASGFTFPYYAMGWYRQAPGKERELVAAISQGGASTRYADSVKGRFTISRDNAKNTVYLQMNSLKPEDTAVYYCAAKSRHFWMDYWGQGTQVTVSS | high polyreactivity |
| QVQLVESGGGLVQAGRSLRLSCAASGFIFGHNAMGWSRQAPGKERELFAAIRSRGGSTYYADSVKGRFTISRDNAKNTVYLQMNSLKREDTAVYYCAADGAVVSSSRKFVYWGQGTQVTVSS | low polyreactivity |
| QVQLVESGGGLVQAGGSLRLSCAASGSTFQGYAMGWYRQAPGKERELVSAISGSGGNTYYADSVKGRFTISRDNAKNTVYLQMNSLKPEVTAVYSCAAGHVRTDWRYGYWGQGTQVTVSS | low polyreactivity |
| QVQLVESGGGLVQAGGSLRLSCAASGRTFYRYAMGWYRQAPGKERELVAAITGGGGSTYYADSVKGRFTISRDNAKNTVYLQMNSLKPEDTAVYYCNRRSYGFISYNFWGQGTQVTVSS | high polyreactivity |
| QVQLVESGGGLVQAGGSLRLSCAASGSTLYWYAMGWYRQAPGKERELVAVITSSGVSTYYADSVKGRFTISRDNAKNTVYLQMNSLKPEDTAVYYCNAKWYGWQRGTVKYDYWGQGTQVTVSS | low polyreactivity |
| QVQLVESGRGLVQAGGSLRLSCAASGSTFVRNAMGWYRQAPGKERELDAAITSSGGSTYYADSVKGRFTISRDYAKNTVYVQMNRLKPEDTAVYYCGKRRYYRYDYWGLGTQVTVSS | low polyreactivity |
| QVLLQESGGGLVQAGGSLRLSCAARGNIFSAGGMGWYSQAPVNVRELVAGIGTGTSTNYADSVKGRFTISRDNAKNTVYLQMNSLKPEDTAVYYCASGYYSGLSHWFWGQGTQVTVSS | low polyreactivity |
| QVQLVESGGGLVQAGGSHRLSCAASGFTIYGNAMGWYRQAPGKERELVAAISGSGGITYYADSVKGRFTISRDNAKNTVYLQMNSLKPEDTAVYYCAAEFWVSRSIWLYYYWGQGTQVTVSS | high polyreactivity |
| QVQLVESGGGIVQAGGSLRLSCAASGFTFSNNVMGGYRQAPGKERELVAAITWSGDGTYYADSVKGRFTISRDNAKNTVYLQMNSLKPEDTAVYYCNARYGKEYDYWGQGTQVTVSS | low polyreactivity |
| QVQLVESGGGLVQARGSRRLTCAASGRTFSYYAMGWYLHEPGKERELVAAITSSGGRTTYADSVKGRFTISRDNAKNTVYLQMNSLKPEDTAVYYCNVVRWTLKYGYWGQGTQVTVSS | high polyreactivity |
| QEQLVESGGGLVQAGGSLRLSCAASGGTFGSNTRGWYRQAPGKERELVAAITSGVSTNYADSVKGRFTISRDNAKITVYLQMNRLKPEDTAVYYCAKELWSEEYETIITYYGFDYLGQGTQVTVSS | low polyreactivity |
| QVQLVESGGGLVQAGGSLRLSCAASGSIFGLNAMGWSRPAPGKERELVAAISGGSTNYADSVKGRFTISRDNAKNTVYLQMNSLKPEDTAVYYCAARARRRYYYWGQGTQVTVSS | high polyreactivity |
| QVQHVESGGGLVQAGGSLRLSCAASGSIFLLYAMGCYSQAPGKERELVAAISTRDGSTYYADSVKGRFTISRDNAKNTVYLQMNSLKPEDTAVYYCATLYSYNYWGQGTQVTVSS | high polyreactivity |
| QVQLVESGGGLVQAGGSLRLSCAASGSIFYVYAMGWYRQAPGKERELVATISSSAGSTYYADSVKGRFTISRDNAKNTVYLQMNSLKPEDTAVYYCAVRQIYQTSDHRLQYDYWGQGTQVTVSS | low polyreactivity |
| QVQLVESAGGLVQAGGSLRLSCGASGRIFGWYALGWSRQAPGKERQLVAAITRSGGSTFYADSVKGRFTISRDNAKNTVYLQMHSLKPDDTAVYYCNARYFNGRHKHYYWGQGTQVTVSS | high polyreactivity |
| QVQLVESGGGLVQAGGSLRLSCAASGSIFTYYAMGWYRQAPGKERELVADISKRGGSTYYADSVKGRFTISRDNAKNTVYLQMNSLKPEYTAVYYCATRARYTWRAFEYWGQGTQVTVSS | low polyreactivity |
| QVQLVESGGGLVQAGGSLRLSCAASGSIFLSNMGWYREAPGKQRELVAAITIGGSTDYADSVKGRFTISRDNAKNTVFLQMNSLKPEDTAVYYCNADNPYSDGADSLGNYWGHGTQVTVSS | low polyreactivity |
